For 94 variants, protein stability index results are on record in the supplement of paper PMC10567573.

The labels stand for the following.
B1: FAM9B (parent)
chain: EDLTAKRKRMKMDKTCSKTKNKSK
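Also: lentivirally expressed fusions sorted by FACS into six bins by GFP to DsRed ratio, PSI derived from sequencing read proportions per bin multiplied by bin number.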

In this data set the parent is B1. Put plainly: protein stability index of a GFP-peptide fusion (GPS, HEK-293T) (PSI 1-6); higher = more stable. The settings on record: c terminus: a fixed tail appended.
For EDDTAKRKRMKMDKTCSKTKNKSK [L3D], the protein stability index is 5.5.

Take EDRTAKRKRMKMDKTCSKTKNKSK [L3R]: the protein stability index is 5.17.

Turning to EDMTAKRKRMKMDKTCSKTKNKSK [L3M], the protein stability index was 5.13.

Take EDQTAKRKRMKMDKTCSKTKNKSK [L3Q]: the protein stability index was found to be 5.51.

For EDVTAKRKRMKMDKTCSKTKNKSK [L3V], the protein stability index turned out to be 5.63.

Regarding EDKTAKRKRMKMDKTCSKTKNKSK [L3K], the protein stability index was 5.4.

Consider EDNTAKRKRMKMDKTCSKTKNKSK [L3N], for which the protein stability index was 5.15.

EDPTAKRKRMKMDKTCSKTKNKSK [L3P]: the protein stability index turned out to be 5.39.

As to EDLTAKRKRMKADKTCSKTKNKSK [M12A], the protein stability index came to 5.02.

With EDLTAKRKRMKGDKTCSKTKNKSK [M12G], the protein stability index was 5.76.

For the variant EDLTAKRKRMKRDKTCSKTKNKSK [M12R], the protein stability index amounted to 4.72.

In the case of EDLTAKRKRMKEDKTCSKTKNKSK [M12E], the protein stability index was determined as 5.78.

With EDLTAKRKRMKNDKTCSKTKNKSK [M12N], the protein stability index was determined as 4.67.

In the case of EDLTAKRKRMKSDKTCSKTKNKSK [M12S], the protein stability index is 5.9.

As for EDLTAKRKRMKIDKTCSKTKNKSK [M12I], the protein stability index is 5.03.

For the variant EDLTAKRKRMKCDKTCSKTKNKSK [M12C], the protein stability index is 5.06.

For the variant EDLTAKRKRMKFDKTCSKTKNKSK [M12F], the protein stability index was 4.95.

Turning to EDLTAKRKRMKHDKTCSKTKNKSK [M12H], the protein stability index was 5.44.

For EDLTAKRKRMKQDKTCSKTKNKSK [M12Q], the protein stability index came out at 5.03.

On to EDLTAKRKRMKVDKTCSKTKNKSK [M12V], for which the protein stability index came to 4.45.

Consider EDLTAKRKRMKMDKTCSKTKNASK [K22A], for which the protein stability index was found to be 5.4.

With EDLTAKRKRMKMDKTCSKTKNRSK [K22R], the protein stability index was 5.31.

Regarding EDLTAKRKRMKMDKTCSKTKNFSK [K22F], the protein stability index was 4.63.

With EDLTAKRKRMKMDKTCSKTKNDSK [K22D], the protein stability index was 5.24.

For the variant EDLTAKRKRMKMDKTCSKTKNMSK [K22M], the protein stability index worked out at 4.47.

Turning to EDLTAKRKRMKMDKTCSKTKNHSK [K22H], the protein stability index was 5.

Take EDLTAKRKRMKMDKTCSVTKNKSK [K18V]: the protein stability index worked out at 4.75.

For EDLTAKRKRMKMDKTCSETKNKSK [K18E], the protein stability index was 5.6.

As to EDLTAKRKRMKMDKTCSDTKNKSK [K18D], the protein stability index was 5.07.

Turning to EDLTAKRKRMKMDKTCSWTKNKSK [K18W], the protein stability index came to 4.35.

In the case of EDLTAKRKRMKMDKTCSITKNKSK [K18I], the protein stability index amounted to 4.9.

On to EDLTAKRKRMKMDKTCSATKNKSK [K18A], for which the protein stability index was determined as 4.86.

On to EDLTAKRPRMKMDKTCSKTKNKSK [K8P], for which the protein stability index came to 5.5.

Turning to EDLTAKRIRMKMDKTCSKTKNKSK [K8I], the protein stability index worked out at 4.4.

As to EDLTAKRHRMKMDKTCSKTKNKSK [K8H], the protein stability index was 4.97.

Consider EDLTAKRGRMKMDKTCSKTKNKSK [K8G], for which the protein stability index worked out at 4.75.

For the variant EDLTAKRNRMKMDKTCSKTKNKSK [K8N], the protein stability index worked out at 5.53.

With EDLTAKRFRMKMDKTCSKTKNKSK [K8F], the protein stability index was found to be 4.58.

Regarding EDLTAKRDRMKMDKTCSKTKNKSK [K8D], the protein stability index stood at 5.29.

For EDLTAKRKWMKMDKTCSKTKNKSK [R9W], the protein stability index is 4.48.

On to EDLTAKRKSMKMDKTCSKTKNKSK [R9S], for which the protein stability index was 5.47.

Take EDLTAKRKLMKMDKTCSKTKNKSK [R9L]: the protein stability index worked out at 4.04.

EDLTAKRKNMKMDKTCSKTKNKSK [R9N]: the protein stability index was determined as 5.38.

With EDLTAKRKVMKMDKTCSKTKNKSK [R9V], the protein stability index stood at 5.09.

Consider EDLTAARKRMKMDKTCSKTKNKSK [K6A], for which the protein stability index came to 4.87.

For the variant EDLTARRKRMKMDKTCSKTKNKSK [K6R], the protein stability index is 5.33.

For the variant EDLTAERKRMKMDKTCSKTKNKSK [K6E], the protein stability index is 5.7.

In the case of EDLTATRKRMKMDKTCSKTKNKSK [K6T], the protein stability index stood at 4.68.

EDLTADRKRMKMDKTCSKTKNKSK [K6D]: the protein stability index is 5.33.

Turning to EDLTAYRKRMKMDKTCSKTKNKSK [K6Y], the protein stability index came out at 5.19.

For EDLTASRKRMKMDKTCSKTKNKSK [K6S], the protein stability index is 5.26.

For EDLTAKRKRMKMDKTCSKTKHKSK [N21H], the protein stability index came out at 5.

On to EDLTAKRKRMKMDKTCSKTKGKSK [N21G], for which the protein stability index turned out to be 4.78.

EDLTAKRKRMKMDKTCSKTKMKSK [N21M]: the protein stability index turned out to be 4.81.

Turning to EDLTAKRKRMKMDKTCSKTKQKSK [N21Q], the protein stability index turned out to be 5.51.

Consider EDLTAKRKRMKMDKTCSKTKIKSK [N21I], for which the protein stability index worked out at 4.7.

With EDLTAKRKRMKMDKTCSKTKWKSK [N21W], the protein stability index turned out to be 4.4.

As to EDLTAKRKRMKMDKTCSKTKRKSK [N21R], the protein stability index was 5.25.

As for EDLTAKRKRMKMDKTCSKTKDKSK [N21D], the protein stability index turned out to be 5.17.

Turning to EDLTAKRKRMKMDKTCSKTKFKSK [N21F], the protein stability index turned out to be 4.57.

Consider ETLTAKRKRMKMDKTCSKTKNKSK [D2T], for which the protein stability index was 4.92.

Consider ESLTAKRKRMKMDKTCSKTKNKSK [D2S], for which the protein stability index was determined as 4.63.

In the case of ENLTAKRKRMKMDKTCSKTKNKSK [D2N], the protein stability index turned out to be 4.63.

For EPLTAKRKRMKMDKTCSKTKNKSK [D2P], the protein stability index was determined as 5.51.

Regarding ECLTAKRKRMKMDKTCSKTKNKSK [D2C], the protein stability index is 4.11.

Turning to EMLTAKRKRMKMDKTCSKTKNKSK [D2M], the protein stability index was determined as 4.44.

In the case of EILTAKRKRMKMDKTCSKTKNKSK [D2I], the protein stability index worked out at 4.16.

Take EFLTAKRKRMKMDKTCSKTKNKSK [D2F]: the protein stability index stood at 3.65.

As for EHLTAKRKRMKMDKTCSKTKNKSK [D2H], the protein stability index turned out to be 5.01.

With EQLTAKRKRMKMDKTCSKTKNKSK [D2Q], the protein stability index turned out to be 5.04.

On to EALTAKRKRMKMDKTCSKTKNKSK [D2A], for which the protein stability index came out at 5.42.

As for ELLTAKRKRMKMDKTCSKTKNKSK [D2L], the protein stability index worked out at 4.08.

Take EDLTAKRKRMKMDKTCSKTKNKSH [K24H]: the protein stability index turned out to be 4.71.

Turning to EDLTAKRKRMKMDKTCSKTKNKSL [K24L], the protein stability index turned out to be 4.01.

As to EDLTAKRKRMKMDKTCSKTKNKSS [K24S], the protein stability index is 4.43.

Turning to EDLTAKRKRMKMDKTCSKTKNKSP [K24P], the protein stability index stood at 4.93.

Turning to EDLTAKRKRMKMDKTCSKTKNKSD [K24D], the protein stability index was 4.97.

For EDLTAKRKRMKMDKTCSKTKNKSV [K24V], the protein stability index came to 4.62.

With EDLTAKRKRMKMDKTCSKTKNKSE [K24E], the protein stability index was 5.11.

As to EDLTAKRKRMKMDKTCSKTKNKSQ [K24Q], the protein stability index stood at 4.59.

As to EDLTAKRKRMKMDKTCSKFKNKSK [T19F], the protein stability index amounted to 5.29.

In the case of EDLTAKRKRMKMDKTCSKEKNKSK [T19E], the protein stability index was 5.74.

Consider EDLTAKRKRMKMDKTCSKWKNKSK [T19W], for which the protein stability index amounted to 4.58.

Take EDLTAKRKRMKMDKTCSKHKNKSK [T19H]: the protein stability index was found to be 5.02.

As for EDLTAKRKRMKMDKTCSKKKNKSK [T19K], the protein stability index worked out at 5.17.

For EDLTAKRKRMKMDKTCSKLKNKSK [T19L], the protein stability index came to 4.94.

On to EDLTAKRKRMKMDKTCSKCKNKSK [T19C], for which the protein stability index came to 4.99.

Turning to EDLTAKRKRMKMDKTCSKSKNKSK [T19S], the protein stability index worked out at 5.62.

Consider EDLTAKRKRMKMIKTCSKTKNKSK [D13I], for which the protein stability index is 4.89.

For EDLTAKRKRMKMFKTCSKTKNKSK [D13F], the protein stability index was determined as 4.26.

Regarding EDLTAKRKRMKMEKTCSKTKNKSK [D13E], the protein stability index was 5.57.

For EDLTAKRKRMKMAKTCSKTKNKSK [D13A], the protein stability index was found to be 4.99.

In the case of EDLTAKRKRMKMVKTCSKTKNKSK [D13V], the protein stability index came out at 5.36.

As to EDLTAKRKRMKMGKTCSKTKNKSK [D13G], the protein stability index was found to be 5.48.
